In paper PMC3946817 (Journal of molecular biology, 2013):

B1: peptide P3 (V426ANAFIICGTLYTVSSY) of myoc-OLF (peptide)
peptide: VANAFIICGTLYTVSSY
B2: peptide P1 (G326AVVYSGSLYFQ) of myoc-OLF (peptide)
peptide: GAVVYSGSLYFQ

Biological target: the molecule itself
Experiment: ThT fluorescence + AFM

Row | Protein | binding result
1 | B1 | binds
2 | B2 | binds
